Measurements as given in publication PMC2900306, “Integration Preferences of Wildtype AAV-2 for Consensus Rep-Binding Sites at Numerous Loci in the Human Genome”.

T1: MBP-Rep78 (Adeno-associated virus type 2 (AAV-2)?, UniProt Q89268 1-621)
T1 sequence: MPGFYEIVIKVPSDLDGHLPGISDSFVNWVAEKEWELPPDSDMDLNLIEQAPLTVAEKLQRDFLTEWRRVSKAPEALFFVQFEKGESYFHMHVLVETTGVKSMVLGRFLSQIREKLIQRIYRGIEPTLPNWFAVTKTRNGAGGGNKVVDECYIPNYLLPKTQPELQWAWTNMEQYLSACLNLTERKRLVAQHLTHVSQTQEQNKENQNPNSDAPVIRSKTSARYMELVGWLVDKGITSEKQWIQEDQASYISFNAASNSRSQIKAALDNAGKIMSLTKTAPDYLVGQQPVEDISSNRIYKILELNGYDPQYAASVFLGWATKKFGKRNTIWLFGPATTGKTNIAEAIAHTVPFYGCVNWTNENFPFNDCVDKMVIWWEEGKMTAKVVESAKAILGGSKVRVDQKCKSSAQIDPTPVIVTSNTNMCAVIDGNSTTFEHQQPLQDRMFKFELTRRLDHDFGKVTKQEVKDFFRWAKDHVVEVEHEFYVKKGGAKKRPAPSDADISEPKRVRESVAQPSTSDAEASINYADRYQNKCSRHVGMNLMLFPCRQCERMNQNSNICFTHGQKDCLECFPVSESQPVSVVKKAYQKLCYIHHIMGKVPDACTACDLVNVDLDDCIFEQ


Columns and labels:
MBP-Rep78 [1] = molecular target: T1, MBP-Rep78; assay: EMSA; 10 mM Mg2+; 25 mM HEPES-KOH pH 7.8, 10 mM MgCl2, 40 mM NaCl, 1 mM DTT, 2% glycerol, 12.5 ug/ml BSA, 0.01% Nonidet P40, 5 ug/ml salmon sperm DNA; 0.015 pmol probe; 20 min at 20 C; conditions: protein: recombinant; MBP fusion; label: 32P 5' end label; blunt
MBP-Rep78 [2] = molecular target: T1, MBP-Rep78; assay: EMSA; among the highest affinities; 10 mM Mg2+; 25 mM HEPES-KOH pH 7.8, 10 mM MgCl2, 40 mM NaCl, 1 mM DTT, 2% glycerol, 12.5 ug/ml BSA, 0.01% Nonidet P40, 5 ug/ml salmon sperm DNA; 0.015 pmol probe; 20 min at 20 C; conditions: protein: recombinant; MBP fusion; label: 32P 5' end label; blunt

Binder	binding signal (MBP-Rep78 [1])	binding result (MBP-Rep78 [2])
Chr. 3p24.3 (AAVS3) (dsDNA) DNA 1: GTGAGGAGTGAGTGAGTGAGCGAGCGCACATTCATTCCCCTTGGGAAGC DNA 2: GCTTCCCAAGGGGAATGAATGTGCGCTCGCTCACTCACTCACTCCTCAC	2 fold of AAVS1 affinity	–
AAV-ITR (A-stem, nt 85-133) (dsDNA) DNA 1: GCCTCAGTGAGCGAGCGAGCGCGCAGAGAGGGAGTGGCCAACTCCATCA DNA 2: TGATGGAGTTGGCCACTCCCTCTCTGCGCGCTCGCTCGCTCACTGAGGC	–	binds
AAV p5 (nt 245-292) (dsDNA) DNA 1: TCACGCTGGGTATTTAAGCCCGAGTGAGCACGCAGGGTCTCCATTTTG DNA 2: CAAAATGGAGACCCTGCGTGCTCACTCGGGCTTAAATACCCAGCGTGA	–	binds
